Assay results published in the supplement of paper PMC9170038.

Test system: MS2 coat protein
Test: apparent KD of MS2 coat protein; designed switch direction (-1 OFF switch, 1 ON switch): -1; higher = weaker reporter binding
Method in brief: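 Normalised cluster fluorescence was curve-fitted, and each design's median over clusters is its apparent KD. Before this, SNAP-549-labelled MS2 coat protein was titrated from 0.7 or 1.5 nM, doubling to 3 µM, over RNA switches transcribed on Illumina chips by stalled E. coli RNA polymerase. Titrations had no input, 200 uM small-molecule ligand, or an oligonucleotide input, and steps lasted 0.8–1.5 h (lowest) to 10–20 min (highest).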

[1] = Eterna round: R95, input ligand: microRNA oligo, concentration not stated
[2] = Eterna round: R95, input ligand: FMN 200 uM
[3] = Eterna round: R95, input ligand: none
[4] = input ligand: microRNA oligo, concentration not stated

| Sequence | apparent KD of MS2 coat protein (input ligand: FMN 200 uM) [nM] | apparent KD of MS2 coat protein (input ligand: none) [nM] | apparent KD of MS2 coat protein [1] [nM] | apparent KD of MS2 coat protein [2] [nM] | apparent KD of MS2 coat protein [3] [nM] | apparent KD of MS2 coat protein [4] [nM] |
| --- | --- | --- | --- | --- | --- | --- |
| UAUACCACAGUUAGGAUAUUCUAAGUAGUAGCUAAGAAGAAGGAACAUGAGGAUCACCCAUGUGGAGCCAGCGU [Eternabot (L1) Solution 99] (Eterna round: R97, puzzle: Brourd's mod of Exclusion 4) | 45.3 | 18.1 |  |  |  |  |
| CUCAUGUGAGGAUAUGUGAUCUGCCUUCUAUGUAGAUGAUCACAGAAGGCACAUGAGGAUCACCCAUGUAGAUC [Ex4 - 3 - 27] (puzzle: Exclusion 4) |  |  | 69.2 |  |  |  |
| AAAUAGCUAGAGGAUAUUGGAUAGGAUUUAAUACGAGAAGGUUAGACAUGAGGAUCACCCAUGUUGUGUUGGGA [EX6 #17] (Eterna round: R97, puzzle: Exclusion 6) | 51.3 | 48.5 |  |  |  |  |
| CUCCCUCGGGUUAGGAUAUGCUACUGGCUUCAGAUGCAGAAGGAACAUGAGGAUCACCCAUGUACCAAAUAAAA [BmEX4 B.15] (Eterna round: R97, puzzle: Brourd's mod of Exclusion 4) | 35 | 14.5 |  |  |  |  |
| CGUCCUGUAGUGAGGAUAUUGUCUCGGAUACGAAACAAGAAGGCACAUGAGGAUCACCCAUGUAAUCAGGACGA [Malc #30 mod 12] (puzzle: Brourd's mod of Exclusion 4) |  |  | 16.1 | 14.1 | 13.3 |  |
| CCGGCGGUAGGAUAUACAAUUGUAAAAGGCAGGUGGUGUCAACAUGAGGAUCACCCAUGUAGAAGGACCUUAAA [EX2 C.26] (Eterna round: R97, puzzle: Exclusion 2) | 38.4 | 22.4 |  |  |  |  |
| AGUCAGACGGUAGGAUAUCCAUAUCGAGUGACCCUUUCAUAACAUGAGGAUCACCCAUGUCGGUGGGAGAAGGGCCGUACGGCG [JL ViennaUCT Atra mod 5] (Eterna round: R96, puzzle: Exclusion NG 2) | 226 | 129 |  |  |  | 93.3 |
| CCCUCACAUGAGGAUCACCCAUGUCAGGAUAUCUCAGUGCAUCCACACGGACGCAUCAAGAGAAGGGACAAAAC [Ququ] (Eterna round: R97, puzzle: Exclusion 1) | 27.8 | 18.4 |  |  |  |  |
| ACUAGGAGAUUAGGAUAUCUAUCUCACAUGAGGAUCACCCAUGUAUAAGCGUCCUAAAGGUGGAUGGAGAAGGGAUGUCCGAAG [Eternabot solution 13] (Eterna round: R96, puzzle: Exclusion NG 2) | 14.1 | 17.5 |  |  |  | 13.8 |
| GCUGGAAAAGGAUAUACAUAACGUGCGUCGGCACGAGAUCUACAUGAGGAUCACCCAUGUAGAAGGUUUCCAGC [EX2 #73] (Eterna round: R97, puzzle: Exclusion 2) | 33.4 | 14.3 |  |  |  |  |
| ACAUGAGGAUCACCCAUGUGACCACGAUGGCUGAUGUAGAGCUAGGAUAUGAGUGAAUAUCUAUCUCAGAAGGAGCUUGACUGG [Deportation 49 - Jieux - Exclusion NG 3] (Eterna round: R96, puzzle: Exclusion NG 3) | 25.7 | 26.2 |  |  |  | 16.4 |
| GGACGGUAAGUGAGGAUAUGCUCUACCUCGGUAGAGCAGAAGGCACAUGAGGAUCACCCAUGUGAAAACUGUUC [Omei Ex4B B31] (Eterna round: R97, puzzle: Brourd's mod of Exclusion 4) | 21.5 | 15 |  |  |  |  |
| GUGUAAUGUGAGGAUAUGUGUUUCGUUAGCUGCACAGAAGGCACAACAUGAGGAUCACCCAUGUGGGCAGGGCC [Eternabot (L1) Solution 10] (Eterna round: R97, puzzle: Exclusion 6) | 59.4 | 19 |  |  |  |  |
| CCUAGACAUGAGGAUCACCCAUGUGAGGAUAUGAUGCGAAUAAAGAAAGAAGAAAGCAUCAGAAGGCACAUAUG [Fiskers Ex 1 - 2] (puzzle: Exclusion 1) |  |  | 41.2 | 130 | 49.4 |  |
| GCGUAGUAUGUAGGAUAUCGGUCAGUUUCUGAUCGAGAAGGACAUGAGGAUCACCCAUGUAAAUUGCCCGCUUUGUGGGUACGC [JL ENG1 3.60] (Eterna round: R96, puzzle: Exclusion NG 1) | 59.3 | 22.5 |  |  |  | 19.1 |
| AAAGUGUUAGGAUAUAGGCGCAGCCAGACGCAGGAAGCGUCCUAGAAGGAACAUGAGGAUCACCCAUGUGGGCG [Eternabot (Original) Solution 41] (Eterna round: R97, puzzle: Exclusion 4) | 1180 | 364 |  |  |  |  |
| ACUAGAUGAGGAUAUACACAUUUUAGUGUUCCUCUAGAUUAACAUGAGGAUCACCCAUGUAGAAGGCAUCAAUU [Exclusion 2 - 11] (puzzle: Exclusion 2) |  |  | 57.8 |  |  |  |

| Sequence | apparent KD of MS2 coat protein (input ligand: FMN 200 uM) [nM] | apparent KD of MS2 coat protein (input ligand: none) [nM] | apparent KD of MS2 coat protein [1] [nM] | apparent KD of MS2 coat protein [2] [nM] | apparent KD of MS2 coat protein [3] [nM] | apparent KD of MS2 coat protein [4] [nM] |
| --- | --- | --- | --- | --- | --- | --- |
| CCUUAGUAAGGAUAUCAGCUUAUAGAGUUGGUAAUGAGAGCUGAGAAGGUACAUGAGGAUCACCCAUGUUAGUU [JL Zatite mod 4] (puzzle: Exclusion 4) |  |  | 20.3 |  |  |  |
| UUUAAUUUAAUUAAGAUCACAUGAGGAUCACCCAUGUAUAUAUAGGAUAUCAGCUCGAUUAGAGCUGAGAAGGAUAUAUACAUA [ExNG3/4-A1] (Eterna round: R96, puzzle: Exclusion NG 3) | 164 | 58.9 |  |  |  | 215 |
| CUUUUGUGAGGAUAUCAGUAGUAAUAAAAUAAAAUAACUACUGAGAAGGCACAUGAGGAUCACCCAUGUUCCUC [Mat - Exclusion 4 - Mod of Salish - D72] (puzzle: Exclusion 4) |  |  | 30 |  |  |  |
| CGAUGUUAUGUCAGGAUAUGCGUUGCGAAAGCAAUGUAGAAGGGACAUGAGGAUCACCCAUGUGCUAACCAUCG [Omei A 10] (puzzle: Brourd's mod of Exclusion 4) |  |  | 17.2 |  |  |  |
| GAGAAGGUAGGAUAUACGAAUAAAAAGGGUAGAAUAAGAACACAUGAGGAUCACCCAUGUAGAAGGACCAAGAG [Mat - Exclusion 2 - Mod of my Tesla design - D21] (puzzle: Exclusion 2) |  |  | 18.4 | 32.8 | 18.5 |  |
| CGAUGCUCGAAUCCACAUGAGGAUCACCCAUGUCGAGUUAGCGAGGAUAUCGGUGACACAUAGUAUGAGAAGGCGCGAACCUGA [Ex NG3 #24] (Eterna round: R96, puzzle: Exclusion NG 3) | 103 | 41.7 |  |  |  | 28 |
| GGUGGACAUGAGGAUCACCCAUGUGAGGAUAUCGGCUGGCUACUGGCUGACGGCUGCUCGAGAAGGCGCAUUGU [Exclusion 1 V87] (puzzle: Exclusion 1) |  |  | 38.4 |  |  |  |
| CACCGUUAACUAGGAUAUAGUACAUGAGGAUCACCCAUGUAAUAAAUGAGAAUUUCGGAUGUAUGCUAGAAGGAGUAAAUCGGC [Ostricism 48 - Jieux - Exclusion NG 2] (Eterna round: R96, puzzle: Exclusion NG 2) |  |  |  |  |  | 45.5 |
| UGAUCUAGCGGAGGAUAUACAUGAGGAUCACCCAUGUAGUAGUGAGUACCGUAGUGCUCACUUGUGUAGAAGGCCGCUAGAUCU [JL ENG2 3.60] (Eterna round: R96, puzzle: Exclusion NG 2) | 17.9 | 13.5 |  |  |  | 9.86 |
| GUCCUGAGCGUUAGGAUAUUCACAGUGGACUACUGGAAGAAGGGACAUGAGGAUCACCCAUGUUCGAUACUGGG [Eternabot (L1) Solution 64] (Eterna round: R97, puzzle: Brourd's mod of Exclusion 4) | 72.2 | 47.2 |  |  |  |  |
| AACAAGGGUUAAUGUACGGACAUGAGGAUCACCCAUGUCCACGGAUGUGUGGAGAGGUCCUCUUUGGCUCGUCUUAU [Cac Sensor turn off var1 sub10] (Eterna round: R97, puzzle: Sensor, turn-off variant 1) | 47.8 | 87.8 |  |  |  |  |
| UAUUAUCAAGCUAGAUCCCACAUGAGGAUCACCCAUGUGCUCGUCUUAUUUCCGGAAUUAUUGGGCUCUCGUCUUUU [JR_STOV1_Sub092] (Eterna round: R97, puzzle: Sensor, turn-off variant 1) | 235 | 238 |  |  |  |  |
| AUCGUGCAGCAAAGCUGUACGAGUACAUGAGGAUCACCCAUGUAGGAUAUGGUACGCAAAGCGUGCUAGAAGGAUAUGAGAUUA [Mat - Exclusion NG 3 - Mod of JL - D97] (Eterna round: R96, puzzle: Exclusion NG 3) | 38.1 | 57.7 |  |  |  | 32.6 |
| AGCAGACGAGGAUAUGAUAAUUAAUACAUGAGGAUCACCCAUGUAAUACUGAUCCAUGGAUCAGAAGGCGUCUGCU [E5/4-A1] (Eterna round: R97, puzzle: Exclusion 5) | 27.1 | 17.6 |  |  |  |  |
| AAGGUACGAGGAUAUACAUAGAUACAGACACAUGUGCAUGUACAUGAGGAUCACCCAUGUAGAAGGCGUAUAUA [AJ 18] (Eterna round: R96, puzzle: Exclusion 2) | 248 | 51.8 |  |  |  | 50.2 |
| GGAGGACGAGCAGGAUAUUUUCACAUGAGGAUCACCCAUGUGUAUUCAGGGUAAUCUUCCGCCGAAAAGAAGGGUUCGGAAGAA [JL ViennaUCT Socedi mod 3] (Eterna round: R96, puzzle: Exclusion NG 2) | 47.1 | 25.9 |  |  |  | 27.4 |
| AGGCGGAAAGUAAGGAUAUCUUGACCAAAGGGUUGAGAGAAGGUACAUGAGGAUCACCCAUGUGUUUACCGCCA [Shrinking Claw (Vienna2)] (Eterna round: R97, puzzle: Brourd's mod of Exclusion 4) | 12.4 | 12.9 |  |  |  |  |
